Assay [1] has as its target T1, recombinant human pro-sPLA2-GIB (pro form of group IB pancreatic phospholipase A2) (human, UniProt P04054 16-148).
T1 construct: also called pro-sPLA2-IB; proPLA2-GIB
Description: competition ELISA on coated pro-sPLA2-IB; competitor biotinylated 7A10. On the procedure: (§1) Epitope mapping of the #14G9, #1C11, #8G11 and #7A10 mAbs was evaluated by competition ELISA. Biotinylated mAbs #14G9, #1C11, #8G11 or #7A10 were added to sPLA2-GIB or pro-sPLA2-GIB coated plates in the presence of an excess of un-biotinylated mAb. Bound mAbs were then detected with Streptavidin-HRP conjugate. Results were expressed as percentage of signal, after subtraction of the autologous competition, with 0% representing maximum competition and 100% no competition (Table 4).

For assay [2], the target named is T1, recombinant human pro-sPLA2-GIB (pro …). The assay can be described thus: competition ELISA on coated pro-sPLA2-IB; competitor biotinylated 8G11. On the procedure:
as §1
(ELISA stands for enzyme-linked immunosorbent assay.)

Assay [3] addresses T2, recombinant human sPLA2-GIB (mature secreted form of group IB pancreatic phospholipase A2) (human, UniProt P04054 23-148).
T2 construct: Genbank NP_000919 printed for human PLA2-GIB; also called sPLA2-IB; mature sPLA2-GIB
Description: SPR (BIAcore 2000), mAb captured on anti-mouse IgG, antigen in solution. How it is done: (§2) The affinity constant (KD) of the pro-sPLA2-GIB and sPLA2-GIB binding to the selected antibodies described above were determined by surface kinetics on a real-time biosensor surface plasmon resonance assay (BIAcore™). More specifically, the affinity of the antibodies for human pro-sPLA2-GIB and sPLA2-GIB was measured using a BIAcore® 2000. The antibody was captured on an anti-mouse IgG surface and exposed to various concentrations of recombinant pro-sPLA2-GIB and sPLA2-GIB protein. Kinetic analysis using BlAevaluation™ software was performed to obtain the association and dissociation rate constants.
as §2, with “constants (Table 3).” for “constants.”
A general note: In SPR one partner is held on a chip, and binding of the other changes the refractive index at the surface.

The target in assay [4] is T1, recombinant human pro-sPLA2-GIB (pro …). Description: indirect ELISA, coated antigen; indirect ELISA, pro-sPLA2-IB coated on the plate. On the procedure:
(§3) Microplate wells were typically coated with 100 ng of recombinant human sPLA2-GIB or pro-sPLA2-GIB in PBS pH 7.5, overnight at 4° C. Sample wells were washed three times with PBS containing 0.05% Tween 20. After final washing, sample wells were treated with blocking solution containing 1% bovine serum albumin (BSA) in PBS buffer for 60 min at room temperature. Following washing with PBS containing 0.05% Tween 20, increasing amounts (10 ng/mL up to 3 μg/mL) of mAb directed against human pro-sPLA2-GIB or sPLA2-GIB were added to antigen-coated wells. and incubated for 120 min at room temperature. Following washing with PBS containing 0.05% Tween 20, the binding of mAb was detected with an HRP-conjugated goat anti-mouse IgG or IgA polyclonal antibody reagent and developed using colorimetric substrate. The dependency of the signals on the […] was analyzed with a 4-parameter fit analysis using Prism™ software (Graph Pad) and reported as EC50.

For assay [5], the target named is T2, recombinant human sPLA2-GIB (mature …). Description: competition ELISA on coated sPLA2-IB; competitor biotinylated 7A10. On the procedure: as §1
The target in assay [6] is T1, recombinant human pro-sPLA2-GIB (pro …). The assay can be described thus: competitive ELISA: mAb premixed with serial dilutions of soluble antigen, free mAb read on antigen-coated plate; competitive ELISA, soluble pro-sPLA2-IB. On the procedure: Binding affinities of the antibodies to pro-sPLA2-GIB and sPLA2-GIB were measured by plate-based competition immunoassay. For the competition ELISA, briefly, constant amounts of antibody at different levels were premixed with serial dilutions of antigen protein, human sPLA2-GIB or pro-sPLA2-GIB, ranging from 0 to 10 μg/ml, and incubated for two hours at room temperature to reach pseudo-binding equilibrium between the antibody and antigen. These solutions were then transferred to 96-well sPLA2-GIB or pro-sPLA2-GIB pre-coated plates to allow the free-antibody in the mixtures to bind to plate-coated sPLA2-GIB or pro-sPLA2-GIB. […] After washing off excess antibody in solution, plate-bound antibodies were detected with an HRP-conjugated goat anti-mouse IgG or IgA polyclonal antibody reagent and developed using colorimetric substrate. The dependency of the signals on the concentrations of antigen in solution was analyzed with a 4-parameter fit analysis using Prism™ software (Graph Pad) and reported as IC50.
The respective binding affinities of the antibodies to human pro-sPLA2-GIB and human sPLA2-GIB were measured by plate-based competition immunoassay. […] Plate-bound antibodies were detected with an HRP-conjugated polyclonal antibody. […]

The target is the same in assay [7]. Description: SPR (BIAcore 2000), mAb captured on anti-mouse IgG, antigen in solution; SPR, mAb captured, pro-sPLA2-GIB in solution. How it is done:
as §2
as §2, with “constants (Table 3).” for “constants.”

The target in assay [8] is T2, recombinant human sPLA2-GIB (mature …). Description: competitive ELISA: mAb premixed with serial dilutions of soluble antigen, free mAb read on antigen-coated plate. How it is done: Binding affinities of the antibodies to pro-sPLA2-GIB and sPLA2-GIB were measured by plate-based competition immunoassay. For the competition ELISA, briefly, constant amounts of antibody at different levels were premixed with serial dilutions of antigen protein, human sPLA2-GIB or pro-sPLA2-GIB, ranging from 0 to 10 μg/ml, and incubated for two hours at room temperature to reach pseudo-binding equilibrium between the antibody and antigen. These solutions were then transferred to 96-well sPLA2-GIB or pro-sPLA2-GIB pre-coated plates to allow the free-antibody in the mixtures to bind to plate-coated sPLA2-GIB or pro-sPLA2-GIB. The plates were typically coated with 30 to 100 ng of human sPLA2-GIB or pro-sPLA2-GIB protein in PBS solution overnight at 4° C. followed by BSA nonspecific blocking. After washing off excess antibody in solution, plate-bound antibodies were detected with an HRP-conjugated goat anti-mouse IgG or IgA polyclonal antibody reagent and developed using colorimetric substrate. The dependency of the signals on the concentrations of antigen in solution was analyzed with a 4-parameter fit analysis using Prism™ software (Graph Pad) and reported as IC50.
The respective binding affinities of the antibodies to human pro-sPLA2-GIB and human sPLA2-GIB were measured by plate-based competition immunoassay. Briefly, constant amounts of antibody at different levels were premixed with serial dilutions of antigen proteins to reach pseudo-binding equilibrium between the antibody and antigen. These solutions were then transferred to antigen pre-coated plates to allow the free-antibody in the mixtures to bind to plate-coated sPLA2-GIB or pro-sPLA2-GIB. Plate-bound antibodies were detected with an HRP-conjugated polyclonal antibody. Data were fitted with a 4PL logistic non-linear regression model and the relative IC50 values were estimated from the model (Table 2).

Assay [9] concerns the target T1, recombinant human pro-sPLA2-GIB (pro …). Description: competition ELISA on coated pro-sPLA2-IB; competitor biotinylated 1C11. On the procedure: as §1
In assay [10] the target is T2, recombinant human sPLA2-GIB (mature …). Description: cell-based or functional assay.
For assay [11] the target is unchanged. The assay can be described thus: competition ELISA on coated sPLA2-IB; competitor biotinylated 1C11. How it is done: as §1
Assay [12] shares this target. Description: indirect ELISA, coated antigen. How it is done:
as §3

Assay [13] has the same target. Description: cell-based or functional assay. The source holds these as a separate data set.

This is an account of results in patent US20210047431A1 (DIACCURATE, published 2021).

T2 sequence (P04054 23-148): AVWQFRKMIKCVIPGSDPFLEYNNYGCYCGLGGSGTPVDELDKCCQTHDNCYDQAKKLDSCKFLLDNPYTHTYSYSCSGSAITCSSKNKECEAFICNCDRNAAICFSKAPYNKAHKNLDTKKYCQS
T1 sequence (P04054 16-148): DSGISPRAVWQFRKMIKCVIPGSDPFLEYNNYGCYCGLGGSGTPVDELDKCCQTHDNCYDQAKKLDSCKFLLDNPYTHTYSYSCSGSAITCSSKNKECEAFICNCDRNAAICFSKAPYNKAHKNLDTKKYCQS

B1: #14G9 (antibody, IgG1, V domains shown)
VH: QVQLQQPGAELVKPGASVKLSCKASGYTFTNYWIHWVKRRPGQGLEWIGNIDPSDTRTHYNQKFKDKATLAVDKSSSTAYMQLSSLTSEDSAVFYCARQTLYYEALDYWGQGTTLTVSS
VL: DIVMTQSHKLMSTSVGDRVSITCKASQDVSTAVAWYQEKPGQSPKLLIYWASTRHTGVPNRFTGSRSGTDYTLTISSVQAEDLALYYCQQDYSTPPTFGAGTKLELKR
notes: also called monoclonal antibody 14G9; #14G9 mAb
As to B1, the percentage of signal in assay [1] came out at 141%; in assay [2], 73%; in assay [5], 12%; in [9] it was 69%; in assay [11], 64%. The Kd in [3] came out at 0.338 nM; in assay [7], 174 nM. For the same molecule, the off-rate constant (koff) in assay [3] amounted to 0.000549 s⁻¹; in assay [7], 0.0506 s⁻¹. The kon turned out to be 1.63e+06 M⁻¹ s⁻¹ in [3] and 301000 M⁻¹ s⁻¹ in [7]. Further, the t1/2 in [3] is 30.4 min; in [7] it was 0.3 min. Moreover, the concentration for a half-maximal effect (EC50) was determined as 158 nM in assay [4] and 6 nM in [12]. In addition, the results for the IC50 in [6] and in assay [8] were 109 nM and 1 nM, respectively. Moreover, the “Enzymatic Activity Inhibition (% of Control)” value in assay [10] was 5%. In addition, the “IC50 of inhibition of sPLA2-GIB enzymatic activity (sPLA2 Activity in U/mL against #14G9 mAb in Log M, 4PL fit)” value in assay [13] was determined as 2.3 nM.

The term Kd denotes the free concentration of one partner at which half of the binding sites on the other are occupied at equilibrium, for simple one-to-one binding. As a reminder, the koff is the rate constant with which the complex falls apart. As a reminder, the kon is the rate constant with which the complex forms. Usually EC50 stands for the concentration needed to bring the measured effect to its halfway point. For orientation: IC50 means the concentration at which inhibition is half-maximal.
